{
  "source": "patent US20040109887A1",
  "key": {"[1]": {"biological_target": "HXBc2 gp160?CT glycoprotein (HIV-1 isolate HXBc2; bovine rhodopsin) (UniProt P04578)", "assay": "FACS titration, anti-human IgG PE"}, "[2]": {"biological_target": "Cleavage-competent YU2 gp160?CT glycoprotein (HIV-1 isolate YU2; bovine rhodopsin) (UniProt P35961)", "assay": "FACS on 293T cells, with against without sCD4 preincubation (without = 100%)"}, "[3]": {"biological_target": "cleavage-defective YU2 gp160?CT glycoprotein (HIV-1 isolate YU2; bovine rhodopsin) (UniProt P35961)", "assay": "FACS on PLs, with against without sCD4 preincubation (without = 100%)"}, "[4]": {"biological_target": "cleavage-defective YU2 gp160?CT glycoprotein (HIV-1 isolate YU2; bovine rhodopsin) (UniProt P35961)", "assay": "FACS titration; saturation not reached with C11"}, "[5]": {"biological_target": "cleavage-defective YU2 gp160?CT glycoprotein (HIV-1 isolate YU2; bovine rhodopsin) (UniProt P35961)", "assay": "FACS titration on gp160?CT PLs / 293T cells, half-maximal binding"}},
  "data": [
    {"substance": "2F5 antibody", "values": [
      {"measurement": "fold higher affinity on PLs with a reconstituted membrane than on beads without a membrane", "setting": "[1]", "value": 10, "unit": "fold"}
    ]},
    {"substance": "17b antibody", "values": [
      {"measurement": "% increase of 17b binding after preincubation with sCD4", "setting": "[2]", "value": 63, "unit": "%"},
      {"measurement": "% increase of 17b binding after preincubation with sCD4", "setting": "[3]", "value": 46, "unit": "%"}
    ]},
    {"substance": "C11 antibody", "values": [
      {"measurement": "fold lower affinity than IgG1b12", "setting": "[4]", "value": "> 10", "unit": "fold"}
    ]},
    {"substance": "IgG1b12 antibody", "values": [
      {"measurement": "EC50", "setting": "[5]", "value": 6, "unit": "nM"}
    ]}
  ]
}
